# Measurements published in patent US20030133971.
# Tested on: recombinant SDI-1 protein
substance,measurement,value
CDK2 (kinase assays of Example 11),phosphorylation of histone H1,The recombinant SDI-1 protein of the present invention inhibits the phosphorylation of histone H1 by CDK2
